Experimental data from patent publication US20250215100A1 (HARBOUR BIOMED SHANGHAI, published 2025).
Substitutions are numbered along the chain they refer to. Names and notes keep the numbering of the source.

B1: PR006492 (antibody, human IgG1, kappa, V domains shown)
VH: QVQLVQSGAEVKKPGASVKVSCKASGYTFAGYYMYWVRQAPGQGLEWMGWINPDSGAPTYAQKFQGRVTMTRDTSISTAYMELSRLRSDDTAVYYCAREKIYYGSGNYYPSFDYWGQGTLVTVSS
VL: DIQLTQSPSFLSASVGDRVTITCRASQGISSYLAWYQQKPGKAPKLLIYAASTLQSGVPSRFSGSGSGTEFTLTISSLQPEDFATYYCQQLESYPWTFGQGTKVEIKR
notes: PR003379 variant L:N92E; human IgG1 L234A, L235A, G237A
B2: PR006501 (antibody, human IgG1, kappa, V domains shown)
VH: B1 VH
VL: B1 VL with E92Q
notes: PR003379 variant L:N92Q; human IgG1 L234A, L235A, G237A
B3: PR006507 (antibody, human IgG1, kappa, V domains shown)
VH: B1 VH
VL: B1 VL with E92N, S93E
notes: PR003379 variant L:S93E; human IgG1 L234A, L235A, G237A
B4: PR006509 (antibody, human IgG1, kappa, V domains shown)
VH: B1 VH
VL: B1 VL with E92N, S93L
notes: PR003379 variant L:S93L; human IgG1 L234A, L235A, G237A
B5: PR006494 (antibody, human IgG1, kappa, V domains shown)
VH: B1 VH
VL: B1 VL with E92T
notes: PR003379 variant L:N92T; human IgG1 L234A, L235A, G237A
B6: PR006505 (antibody, human IgG1, kappa, V domains shown)
VH: B1 VH
VL: B1 VL with E92N, S93I
notes: PR003379 variant L:S93I; human IgG1 L234A, L235A, G237A
B7: PR006506 (antibody, human IgG1, kappa, V domains shown)
VH: B1 VH
VL: B1 VL with E92N, S93F
notes: PR003379 variant L:S93F; human IgG1 L234A, L235A, G237A
B8: PR006493 (antibody, human IgG1, kappa, V domains shown)
VH: B1 VH
VL: B1 VL with E92L
notes: PR003379 variant L:N92L; human IgG1 L234A, L235A, G237A
B9: PR006503 (antibody, human IgG1, kappa, V domains shown)
VH: B1 VH
VL: B1 VL with E92G
notes: PR003379 variant L:N92G; human IgG1 L234A, L235A, G237A
B10: PR001303 (APX005) (antibody, human IgG1, kappa)
heavy: not shown
light: DIQMTQSPSSLSASVGDRVTIKCQASQSISSRLAWYQQKPGKPPKLLIYRASTLASGVPSRFSGSGSGTDFTLTISSLQPEDVATYYCQCTGYGISWPIGGGTKVEIKRTVAAPSVFIFPPSDEQLKSGTASVVCLLNNFYPREAKVQWKVDNALQSGNSQESVTEQDSKDSTYSLSSTLTLSKADYEKHKVYACEVTHQGLSSPVTKSFNRGEC
notes: CD40 positive control antibody

Molecular target: T1, human CD40 on cells (human, UniProt P25942 21-277)
T1 construct: whole, on cells; The cell line used is named in each row's assay; also called hCD40; TNFRSF5
T1 sequence (P25942 21-277): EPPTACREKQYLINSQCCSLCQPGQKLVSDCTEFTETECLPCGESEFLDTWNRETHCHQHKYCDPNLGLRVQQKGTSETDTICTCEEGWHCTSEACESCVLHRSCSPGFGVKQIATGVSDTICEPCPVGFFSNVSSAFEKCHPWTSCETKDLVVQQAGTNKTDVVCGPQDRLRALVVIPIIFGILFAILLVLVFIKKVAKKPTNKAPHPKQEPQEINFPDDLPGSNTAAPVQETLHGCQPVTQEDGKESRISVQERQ
Experiment: FACS, Raji cells
Text: (§1) Flow cytometry (FACS) was used to detect the binding ability of the CD40 antibody to cells, such as, CHO-K1/hCD40 highly expressing human CD40 (constructed by Beijing Kyinno Biotechnology), CHO-K1/cyCD40 highly expressing cynomolgus monkey CD40 (constructed by Beijing Kyinno Biotechnology) and lymphoma cell highly expressing human CD40, Raji (ATCC, #CCL-86). Specifically, the cells were digested and resuspended with complete medium (F-12K for CHO-K1 cells; and RPMI-1640 for Raji cells); and the cells were adjusted to a cell density of 1×10⁶ cells/mL. The cells were seeded in a 96-well V-bottom plate (Corning, #3894) at 100 μL/well, and the antigen binding protein to be tested at 2x final concentration was then added at 100 μL/well and mixed evenly, with the highest final concentration of the antigen binding protein of 300 nM, a total of 8 concentrations, and 5-fold concentration gradient dilution. hIgG (Crownbio, #C0002) was used as a negative control, and the positive control molecule was the molecule in Table 1-5. The cells were incubated at 4° C. for 1 hours in the dark. After the incubation, the cells were rinsed twice by adding pre-chilled PBS at 100 μL/well, and centrifuged at 500 g at 4° C. for 5 minutes, and the supernatant was discarded. Then, a fluorescent secondary antibody (goat anti-human IgG (H+L) secondary antibody, Alexa Fluor® 488 conjugate, Invitrogen, #A11013, 1:1000 dilution) was added at 100 µL/well, and the cells were incubated at 4° C. for 30 minutes in the dark. The cells were washed twice with pre-chilled PBS at 200 μL/well, and centrifuged at 500 g at 4° C. for 5 minutes, and the supernatant was discarded. Finally, the cells were resuspended in pre-chilled PBS at 200 μL/well. The fluorescence signal values were read using a BD FACS CANTOII flow cytometer or ACEA NovoCyte flow cytometer, and the data were processed and analyzed using FlowJo v10 software (FlowJo, LLC).
(§2) Data processing and graphical analysis were performed using GraphPad Prism 8 software. The binding curve of the antibody to the target cell and parameters, such as EC50 value were obtained by four-parameter nonlinear fitting.

| EC50 [nM] | Maximum MFI [MFI] | Binder |
| --- | --- | --- |
| 0.418 | 9070 | B1 |
| 0.352 | 9000 | B2 |
| 0.384 | 12300 | B3 |
| 0.371 | 12200 | B4 |
| 0.328 | 9180 | B5 |
| 0.336 | 11900 | B6 |
| 0.388 | 12100 | B7 |
| 0.377 | 9350 | B8 |
| 0.333 | 12200 | B9 |
| 0.0347 | 2790 | B10 |

Molecular target: T2, cynomolgus monkey CD40 on cells (cynomolgus monkey, UniProt G7PG38 21-278)
T2 construct: also called cyCD40; CHO-K1/cyCD40
T2 sequence (G7PG38 entry or part of it limits assumed): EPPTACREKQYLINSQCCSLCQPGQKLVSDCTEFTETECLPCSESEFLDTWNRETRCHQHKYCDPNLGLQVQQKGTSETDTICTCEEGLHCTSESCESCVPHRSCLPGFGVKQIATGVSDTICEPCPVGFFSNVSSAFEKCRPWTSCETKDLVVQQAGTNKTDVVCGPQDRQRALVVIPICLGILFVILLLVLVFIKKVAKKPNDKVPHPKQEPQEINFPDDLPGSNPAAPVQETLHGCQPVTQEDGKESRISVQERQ
Experiment: FACS, CHO-K1/cyCD40 cells
Text: as §1, §2

| EC50 [nM] | Maximum MFI [MFI] | Binder |
| --- | --- | --- |
| 6.26 | 52200 | B1 |
| 4.19 | 48200 | B2 |
| 5.01 | 49300 | B3 |
| 4.69 | 45300 | B4 |
| 4.04 | 49600 | B5 |
| 4.62 | 48100 | B6 |
| 4.5 | 47300 | B7 |
| 4.06 | 48900 | B8 |
| 3.99 | 49600 | B9 |
| 4.72 | 93600 | B10 |

Molecular target: T1, human CD40 on cells
Experiment: FACS, CHO-K1/hCD40 cells
Text: as §1, §2

| EC50 [nM] | Maximum MFI [MFI] | Binder |
| --- | --- | --- |
| 8.87 | 92300 | B1 |
| 5.29 | 91000 | B2 |
| 5.58 | 81800 | B3 |
| 5.51 | 79600 | B4 |
| 8.73 | 98800 | B5 |
| 6.08 | 82700 | B6 |
| 5.85 | 82800 | B7 |
| 5.26 | 83400 | B8 |
| 6.07 | 84500 | B9 |
| 2.83 | 26000 | B10 |
